The subject of data set [1] is human endothelial cells. The data set is described as follows: FACS binding of biotinylated proteins to endothelial cells in suspension. Type of data set: cell-based. The conditions noted are these: 0.1 μM tTF-RGD, 1 μM competing peptide. The procedure: FIG. 6: Binding of tTF and tTF-RGD to human endothelial cells. A: FACS analysis of endothelial cells incubated with 0.1 μM tTF (2) or with 0.1 μM tTF-RGD (3) for 60 min at 4° C. […] Curves 1 in A and B show the negative control.
Next the specific binding of tTF-RGD to αvβ3 on endothelial cells was evaluated. For this, the differential binding of biotinylated tTF and tTF-RGD to endothelial cells in suspension was analysed by FACS (Fluorescence Activated Cell Sorting). The fact that all endothelial cells held in tissue culture are activated, i.e. express αvβ3 molecules, is utilized experimentally. This can be detected by various immunohistochemical methods. A cultivated endothelial cell thus corresponds, in relation to its expression pattern with respect to αvβ3 to a tumor endothelial cell. Accordingly, a cultivated endothelial cell can be used as a model system for the specific binding of substances to tumor endothelial cells and also permits predictions to be made concerning the expected toxicity.
Streptavidin-phycoerythrin was used as the detection method. The measured fluorescence intensity for tTF-RGD was higher by a factor of 8 than for tTF (FIG. 6A). Furthermore, the binding of 0.1 μM tTF-RGD to endothelial cells was lowered competitively by 75% by the administration of 1 μM of the synthetic peptide GRGDSP (SEQ ID NO:33) (FIG. 6B). […]
A general note: A flow cytometer gives signals particle by particle.

Data set [2] deals with integrin αvβ3 (Homo sapiens, UniProt P05106+P06756). The data set is described as follows: ELISA binding to immobilized purified αvβ3. The procedure: FIG. 4: Binding of tTF, tTF-RGD and tTF-NGR to integrin αvβ3. The binding of 0.1 μM tTF, tTF-RGD and tTF-NGR to immobilized αvβ3 was quantified with a polyclonal antibody against human TF (American Diagnostica) in an ELISA. The results are presented as median and interquartile range. The differences in binding between tTF-RGD and tTF or between tTF-NGR and tTF were statistically significant (p<0.001, Mann-Whitney test).
(An ELISA detects its analyte on a solid surface through an enzyme-linked reagent.)

The subject of data set [3] is human malignant melanoma (M21). As to the kind of experiment: M21 melanoma xenograft in athymic nude mice, intravenous therapy. It counts as in vivo. The procedure: The vertical arrows indicate the times of injection with the respective substances.
The vertical arrows indicate the times of the injections with the respective substances.
(§1) The tTF-RGD and tTF-NGR fusion proteins were evaluated with respect to their effects and side-effects on xenografts of human tumors in athymic nude mice. The models established in our laboratory were used for this (33, 34). The cell lines CCL185 (human adenocarcinoma of the lung) and M-21 (human melanoma) were injected subcutaneously into the flank of male BALB/c nude mice (9-12 weeks old). On attaining a tumor volume of about 50-100 mm^3 (CCL185) or 400-600 mm^3 (M−21), the mice were assigned to four groups at random. Group 1 received only physiological saline solution (NaCl), group 2 tTF, group 3 tTF-RGD, and group 4 tTF-NGR (in each case 1.5-2.0 mg/kg body weight (BW) of the protein). The injections were made in the caudal vein of the animals at intervals of 1-3 days (depending on the growth rate of the particular cell line). Considerable therapeutic activity of the fusion proteins was observed.

Data set [4] deals with T1, activation of factor X to factor Xa via factor VIIa (Homo sapiens, UniProt P08709).
T1 construct: 50 nM recombinant FVIIa (Novo-Nordisk) in TBS-BSA; purchased Novo-Nordisk (FVIIa); Enzyme Research Laboratories (FX)
T1 sequence (P08709 61-212 limits assumed): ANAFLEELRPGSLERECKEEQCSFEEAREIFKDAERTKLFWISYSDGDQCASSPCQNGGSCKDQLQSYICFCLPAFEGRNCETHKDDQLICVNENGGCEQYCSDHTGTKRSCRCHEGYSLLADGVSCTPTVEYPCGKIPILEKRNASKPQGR
T1 sequence (P08709 213-466 limits assumed): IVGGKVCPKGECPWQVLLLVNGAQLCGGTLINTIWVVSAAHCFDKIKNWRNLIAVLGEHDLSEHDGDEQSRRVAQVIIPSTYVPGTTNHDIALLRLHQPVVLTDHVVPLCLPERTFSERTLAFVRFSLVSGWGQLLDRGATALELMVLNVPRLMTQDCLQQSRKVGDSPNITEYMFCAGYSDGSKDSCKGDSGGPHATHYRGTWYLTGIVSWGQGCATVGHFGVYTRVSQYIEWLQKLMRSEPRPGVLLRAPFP
As to the kind of experiment: Cofactor activity in activation of FX by FVIIa (Michaelis-Menten analysis, chromogenic FXa readout). It counts as biochemical. Conditions: in the presence of phospholipids. The procedure:
The ability of tTF and of the tTF fusion polypeptides to intensify the specific proteolytic activation of FX via FVIIa in the presence of phospholipids was determined in a slightly modified version of the method described by Ruf (45). For this, 20 μl of each of the following reagents was pipetted in microtiter plates: (a) 50 nM recombinant FVIIa (Novo-Nordisk) in TBS-BSA; (b) 0.16 nM-1.6 μM tTF/tTF fusion polypeptide in TBS-BSA; (c) 25 mM CaCl2 and 500 μM phospholipid vesicle (phosphatidylcholine/phosphatidylserine, 70/30, M/M; Sigma). After 10 min incubation at room temperature, 20 μl of the natural substrate FX (Enzyme Research Laboratories) was added at a concentration of 5 μM. Then a sample was taken by pipette at one-minute intervals and the reaction was stopped by adding 100 mM EDTA solution. The amount of FXa that formed was measured by addition of the chromogenic substrate Spectrozyme FXa in a Microplate Reader by determining the change in absorption at 405 nm and the parameters for the Michaelis-Menten kinetics were analysed by the method described by Ruf. […] The Michaelis constants (Km) found for the fusion polypeptides were in the range 0.12-1.2 nM (FIG. 3), and thus in the lower range that is published for tTF. It can therefore be assumed that the functional activity is unaffected by the fusing of tTF with the peptides.

Data set [5] deals with human lung carcinoma (CCL185). The data set is described as follows: CCL185 lung carcinoma xenograft in athymic nude mice, intravenous therapy. It counts as in vivo.
Source text: FIG. 7: Inhibition of a human lung carcinoma (CCL185) growing as a xenograft in athymic nude mice by intravenous therapy with tTF fusion proteins (tTF-RGD, n=6; tTF-NGR, n=6) compared with tumor growth with infusion of physiological saline solution (NaCl, n=8) or tTF (n=1). The vertical arrows indicate the times of injection with the respective substances.
c: Inhibition of a human lung carcinoma (CCL185) growing as a xenograft in athymic nude mice by intravenous therapy with tTF fusion proteins (tTF-RGD, n=11) compared with the growth of the tumors in infusion of physiological saline solution (NaCl, n=10) or tTF (n=5). The vertical arrows indicate the times of the injections with the respective substances.
as §1

The subject of data set [6] is human fibrosarcoma (HT1080). As to the kind of experiment: HT1080 fibrosarcoma xenograft in BALB/c nude mice, intravenous therapy. It counts as in vivo. Conditions: HT1080 tumors. The source says: b: Inhibition of a human fibrosarcoma (HT1080) growing as a xenograft in athymic nude mice by intravenous therapy with tTF fusion proteins (tTF-RGD, n=12) compared with the growth of the tumors with infusion of physiological saline solution (NaCl, n=15) or tTF (n=14). The vertical arrows indicate the times of the injections with the respective substances.
The antitumor activity of the tTF-RGD fusion protein was also investigated in BALB/c nude mice with fibrosarcomas (HT1080). These tumors grow rapidly and are well-vascularized. […] This effect lasted until the end of the experiment on day 7 (P=0.021 for tTF-RGD relative to the buffer control (physiological saline solution), P=0.005 for tTF-RGD relative to tTF).

Data set [7] has as its system normal tissue such as heart, kidney, liver and lung. As to the kind of experiment: Histology of normal organs after injection (clotting, necrosis, organ toxicity). Conditions: repeated high doses (4 mg/kg BW).
For data set [8], the system named is tumor blood vessels. As to the kind of experiment: Macroscopy and histology of tumors after injection (thrombosis induction in tumor vessels, necrosis). Type of data set: in vivo, mice. The procedure:
FIG. 9: Macroscopic in vivo photograph of a tumor-bearing mouse 20 min after injection of the tTF-NGR fusion protein (A, left half of the picture) or NaCl (A, right half of the picture). […] After 60 min, the two mice were exsanguinated, the tumor was excised in toto and examined histologically. […] In contrast, the NaCl-treated tumor appears to be vital (C).
FIG. 10: Histology of the melanoma tumor 1 hour after intravenous injection of tTF-RGD (A and B), tTF-NGR (C and D) and common salt (E and F) in the caudal vein of the tumor-bearing nude mouse. […] The photographs are of representative areas of the tumors (A, C and E: 200× magnification, B, D and F 400× magnification; HE staining (staining described e.g. in H. C. Burck, Histologische Technik-Leitfaden für die Herstellung mikroskopischer Präparate in Unterricht und Praxis, 5th edition, Thieme Verlag, Stuttgart 1982, pages 109 ff.).
FIG. 35: Macrograph of a mouse bearing an M21 tumor at the end of treatment (day 7) with tTF-RGD fusion protein (A, C) or NaCl (B, D).
To verify the mechanism of action of thrombosis induction in tumor vessels, the following experiment was carried out: the human melanoma cell line was injected into the flank of two male BALB/c nude mice. On attaining a tumor size of approx. 500 mm^3, 2.0 mg/kg BW tTF-NGR or NaCl was injected into the caudal vein. […] After 60 min the mice were exsanguinated, the tumor was excised in toto and investigated histologically. […] In contrast, the tumor treated with NaCl appears to be vital (FIG. 9C).

[9] abbreviates: melanoma tumor 1 hour after intravenous injection, HE staining.

From patent US7618943B2, “Fusion polypeptides, and use thereof in antivascular tumor therapy” (Oncoscience AG, priority 2003, dated 2009) come the findings set out here.

Entries after “also recorded” stand apart in the source; their conditions may differ.

Chain of integrin αvβ3 (P06756 31-889 limits assumed): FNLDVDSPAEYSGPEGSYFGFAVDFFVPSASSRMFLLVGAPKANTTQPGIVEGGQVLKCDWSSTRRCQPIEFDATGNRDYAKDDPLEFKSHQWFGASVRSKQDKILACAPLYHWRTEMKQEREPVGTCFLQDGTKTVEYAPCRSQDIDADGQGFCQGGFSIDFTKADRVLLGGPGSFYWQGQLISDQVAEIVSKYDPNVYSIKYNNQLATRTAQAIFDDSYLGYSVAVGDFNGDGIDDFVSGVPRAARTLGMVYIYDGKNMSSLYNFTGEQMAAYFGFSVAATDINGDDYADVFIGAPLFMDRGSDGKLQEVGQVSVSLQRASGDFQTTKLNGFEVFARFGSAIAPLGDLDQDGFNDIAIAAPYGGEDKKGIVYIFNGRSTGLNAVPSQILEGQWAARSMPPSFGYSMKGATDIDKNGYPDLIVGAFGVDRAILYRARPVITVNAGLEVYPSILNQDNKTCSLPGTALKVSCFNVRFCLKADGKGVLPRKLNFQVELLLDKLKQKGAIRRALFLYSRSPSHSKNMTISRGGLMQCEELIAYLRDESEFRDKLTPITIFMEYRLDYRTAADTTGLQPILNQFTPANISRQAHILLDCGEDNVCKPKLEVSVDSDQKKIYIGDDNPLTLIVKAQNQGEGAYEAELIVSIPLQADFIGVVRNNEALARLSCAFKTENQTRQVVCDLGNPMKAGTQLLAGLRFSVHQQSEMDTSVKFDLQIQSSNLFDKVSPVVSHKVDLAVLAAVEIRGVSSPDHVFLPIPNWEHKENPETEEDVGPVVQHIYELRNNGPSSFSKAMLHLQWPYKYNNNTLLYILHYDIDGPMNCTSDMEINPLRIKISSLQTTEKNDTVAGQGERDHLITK
Chain of integrin αvβ3 (P06756 891-1048 limits assumed): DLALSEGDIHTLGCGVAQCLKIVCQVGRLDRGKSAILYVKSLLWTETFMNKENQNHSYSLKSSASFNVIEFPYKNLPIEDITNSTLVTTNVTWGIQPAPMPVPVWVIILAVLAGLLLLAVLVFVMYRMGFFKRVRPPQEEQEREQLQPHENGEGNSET
Chain of integrin αvβ3 (P05106 27-788): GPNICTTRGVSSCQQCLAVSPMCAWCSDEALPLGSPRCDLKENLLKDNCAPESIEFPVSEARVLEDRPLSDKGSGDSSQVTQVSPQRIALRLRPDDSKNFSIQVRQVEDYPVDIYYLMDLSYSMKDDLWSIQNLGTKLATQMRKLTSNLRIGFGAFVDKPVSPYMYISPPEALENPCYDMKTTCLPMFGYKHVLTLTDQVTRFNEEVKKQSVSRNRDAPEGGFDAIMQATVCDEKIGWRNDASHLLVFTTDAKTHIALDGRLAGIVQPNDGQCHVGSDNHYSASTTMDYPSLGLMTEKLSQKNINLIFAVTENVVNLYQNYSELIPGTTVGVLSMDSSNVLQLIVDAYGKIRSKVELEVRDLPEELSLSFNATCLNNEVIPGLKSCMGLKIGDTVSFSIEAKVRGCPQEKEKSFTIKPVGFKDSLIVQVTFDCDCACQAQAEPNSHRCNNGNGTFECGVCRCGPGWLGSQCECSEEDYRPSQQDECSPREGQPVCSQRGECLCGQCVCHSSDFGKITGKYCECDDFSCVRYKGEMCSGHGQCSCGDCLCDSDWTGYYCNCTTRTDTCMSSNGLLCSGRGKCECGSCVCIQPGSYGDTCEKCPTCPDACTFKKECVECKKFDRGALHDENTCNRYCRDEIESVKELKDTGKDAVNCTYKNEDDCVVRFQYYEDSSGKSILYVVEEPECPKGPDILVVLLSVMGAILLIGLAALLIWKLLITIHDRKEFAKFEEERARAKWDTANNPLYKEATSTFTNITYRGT

Regarding “GRGDSP: synthetic peptide with the sequence GRGDSP (SEQ ID NO:33) from the company Gibco”, in data set [1], the “reduction in binding of tTF-RGD to endothelial cells” value is recorded as 75%. Also, in data set [2] (both RGD peptide concentrations (1-10 μM)), the “p of inhibition of tTF-RGD binding (Mann-Whitney test)” value was less than 0.001. In addition, in data set [2] (tTF-RGD 0.1 μM, peptide 1-10 μM), the “competitive inhibition of binding of tTF-RGD to immobilized αvβ3” value is recorded as “competitively inhibits; also recorded: inhibited significantly”.

B1: tTF: truncated human tissue factor, N-terminal 218 amino acids of TF (SEQ ID NO:2) (protein, listed as Homo sapiens)
chain: SGTTNTVAAYNLTWKSTNFKTILEWEPKPVNQVYTVQISTKSGDWKSKCFYTTDTECDLTDEIVKDVKQTYLARVFSYPAGNVESTGSAGEPLYENSPEFTPYLETNLGQPTIQSFEQVGTKVNVTVEDERTLVRRNNTFLSLRDVFGKDLIYTLYYWKSSSSGKKTAKTNTNEFLIDVDKGENYCFSVQAVIPSRTVNRKSTDSPVECMGQEKGEFR
modifications: Amino acid sequence of tTF1-218
Consider B1, for which the “Mean tumor volume Day 0” value is 558 ± 47 mm^3 in data set [3] (M21 tumors, Day 0 (baseline)); 44 ± 8 mm^3 in data set [5] (CCL185 tumors, Day 0 (baseline)); 1751 ± 269 mm^3 in data set [6] (Day 0 (baseline)). The “Mean tumor volume Day 7” value in data set [3] (M21 tumors, Day 7) was 931 ± 147 mm^3; in data set [5] (CCL185 tumors, Day 7), 764 ± 148 mm^3; in data set [6] (Day 7), 2335 ± 398 mm^3. In addition, in data set [4], the “functional activity (cofactor activity in FX activation via FVIIa)” value is “functionally active”.

B2: tTF-NGR: fusion polypeptide tTF-GNGRAHA (SEQ ID NO:4) (protein)
chain: SGTTNTVAAYNLTWKSTNFKTILEWEPKPVNQVYTVQISTKSGDWKSKCFYTTDTECDLTDEIVKDVKQTYLARVFSYPAGNVESTGSAGEPLYENSPEFTPYLETNLGQPTIQSFEQVGTKVNVTVEDERTLVRRNNTFLSLRDVFGKDLIYTLYYWKSSSSGKKTAKTNTNEFLIDVDKGENYCFSVQAVIPSRTVNRKSTDSPVECMGQEKGEFRGNGRAHA
modifications: Amino acid sequence of tTF-GNGRAHA
Turning to B2, the “effect on tumor growth” value in data set [3] (M21 xenograft, intravenous therapy, compared with NaCl or tTF) is “Inhibition and partial remission”. For the same molecule, the “effect on tumor growth” value in data set [5] (CCL185 xenograft, intravenous therapy, compared with NaCl or tTF) is recorded as “Inhibition”. In data set [2] (0.1 μM protein, immobilized αvβ3), the “binding to the αvβ3 integrin in ELISA” value is “demonstrated”. Besides, the “visible clot formation or organ toxicity” value in data set [7] is recorded as “did not lead to any visible clot formation or organ toxicity”. Further, in data set [8] (setting [9]), the “histology of tumor blood vessels (thrombus formation)” value is given as “microscopically visible thrombus formation in the blood vessels; also recorded: blood vessels appear to be thrombolytically occluded” and the “histology: tumor necrosis in supply region of occluded vessel” value is recorded as “Extensive tumor necroses”. Moreover, the “macroscopic picture of the tumor in vivo” value in data set [8] (melanoma, 20 min after 2.0 mg/kg BW into the caudal vein) is “bluish-livid coloration of the tumor”. Moreover, the “appearance of the excised tumor” value in data set [8] (melanoma, excised 60 min after 2.0 mg/kg BW) is listed as “hemorrhagic imbibition of the tumor”.
